Test results reported in the Human Domainome abundance scans (Beltran et al. 2025).

B1: Tripartite motif-containing protein 49C, residues 87 to 133; numbered along this chain, P0CI26 (parent)
chain: SSEEQMCGTHRETKKIFCEVDRSLLCLLCSSSQEHRYHRHRPIEWAA

Variants of: B1
Test: abundance fitness (aPCA) (normalised: wild type 0, dead -1); higher = more abundant; growth selection in yeast, the domain comes from the species named
Conditions: Homo sapiens

Abundance fitness: each site, then its substitutions
H10: F -1.07, R -0.728, W -0.976
E4: I -0.142, H -0.351, W -0.577, V -0.093, T 0.02, S -0.244, Y -0.35, G -0.68, P -0.196, L -0.278, M 0.015, K -0.502, Q -0.726, R -0.252, C -0.591, F -0.59, D -0.035, A -0.224
M6: C -0.568, W -0.651, R -0.338, A -0.575, D -0.875, G -0.553, H -0.215, F -0.769, K -0.581, L -0.13, S -0.57, T -0.414, I -0.855, V -0.21, N -0.958, Y -0.344, Q -0.273
T9: D -0.395, V 0.047, H -0.153, L 0.151, G -0.556, N -0.417, C -0.565, R -0.078, S -0.127, I -0.074, W -0.339, A -0.235, Q 0.057, M -0.265, F -0.469, Y -0.183, P -0.503, K 0.185
C7: P -0.598, Y -0.788, F -0.957, D -0.589, K -1.08, H -0.429, I -0.797, A -0.935, T -0.861, M -0.718, W -0.499, V -0.722, R -0.513, Q -0.832, S -0.636
R11: F -0.613, K 0.073, E -0.683, C -0.008, I -0.398, N -0.049, H 0.154, G -0.069, P -0.441, W -0.36, Y -1.07, A -0.134
